According to patent US20130203655A1, “METHODS FOR PREVENTING OR TREATING VIRAL INFECTION” (priority 2010, published 2013):

Experiments:
[1] = tested on: DENV1 WT prM-E VLP; settings: 20 mM NH4Cl-treated vs untreated cells
Description: (§1) Expression of prM-E and VLP production. WT and E H244A mutant DENV1 prM-E sequences were PCR-amplified from the pGDENV1 3.3 subclones described above, and cloned into pcDNA4/TO (Invitrogen, Life Technologies, Carlsbad, Calif.). These constructs were transfected into T-REx™-293 cells (Invitrogen, Life Technologies, Carlsbad, Calif.) using Lipofectamine™ 2000 (Invitrogen, Life Technologies, Carlsbad, Calif.) and selected in T-REx HEK medium containing 125 μg/ml Zeocin, all as previous described.
(§2) For VLP secretion studies, 2-3×10^6 cells were seeded in 10 cm plates, cultured for 24 h, and then induced by culture for 36 h in 1.5 μg/ml tetracycline in DME medium with 10% FCS at 37° C. The culture media were centrifuged at 10,000×g for 30 min to remove cell debris. VLPs were then pelleted through a 0.5 ml sucrose cushion by centrifugation at 54,000 rpm for 2 h at 4° C. using a TLS55 rotor. To test the effect of neutralizing the pH of acidic cellular compartments, cells were seeded and induced as above. After 2 h of induction the media were changed to DME medium containing 20 mM HEPES pH 8.0, 2% FCS, and 1.5 μg/ml tetracycline plus 20 mM NH4Cl as indicated, and the incubation continued for a total of 36 h. E proteins in the cell lysates were immunoprecipitated using mAb 4G2.

[2] = tested on: DENV1 H244A prM-E VLP; settings: 20 mM NH4Cl, total 36 h, vs untreated cells
Description: as §1, §2

[3] = biological target: DENV2 E DI/II protein (monomeric, E residues 1-291, STST tag), wild type (Dengue virus 2 New Guinea C (NGC) strain); test: cell-based or functional assay
[4] = biological target: DENV2 E DI/II H244A protein (Dengue virus 2 New Guinea C (NGC) strain); test: cell-based or functional assay
[5] = biological target: DENV2 E′ protein (dimeric E ectodomain, E residues 1-395, ST tag) (Dengue virus 2 New Guinea C (NGC) strain); test: cell-based or functional assay

## Cl.N [NH4Cl]
[1]
  WT VLP production: similar
[2]
  increase in production of VLP containing H244A mutant E protein: 4-7 fold

## DENV2 NGC DIII protein (LDIIIH1CS, E residues 289-430)
[3]
  DI/II co-floatation with liposomes at low pH in the presence of DIII (none with BSA in place of DIII): 25%

## recombinant DENV2 pr peptide (prM residues 1-86 with N-terminal GS and C-terminal tandem Strep tag)
[4]
  efficiency of floatation of H244A DI/II with liposomes, in the absence of pr: 43%
  efficiency of floatation of H244A DI/II with liposomes, in the presence of pr: 47%
[5]
  E′ co-floatation with liposomes at pH 5.75, pr:E′ molar ratio 12:1 (about 70% with a control protein): 2%
  E′ co-floatation with liposomes, pr:E′ molar ratio 3:1: 22%
  E′ co-floatation with liposomes, pr:E′ molar ratio 6:1: 8%
  E′ co-floatation with liposomes, pr:E′ molar ratio 24:1: 0.4%
